The values that follow come from patent US20170362324A1 (Biogen, published 2017).

For test [1], the target named is T1, human αvβ5 expressed on BaF3 cells (stably transfected with human αv and β5 subunits) (human, UniProt P06756 31-1048; P18084 24-799). Nature of the test: cell-based or functional assay.
For test [2], the target named is T2, human soluble αvβ5 protein (extracellular domains of human αv and β5 integrin subunits) (human, UniProt P06756 31-992; P18084 24-719).
T2 construct: also called biotin-αvβ5; hsαvβ5
Nature of the test: ELISA, biotin-αvβ5 on streptavidin plate, unpurified antibody. The method, then: Solid-Phase αvβ5 Binding Assay (ELISA): A 96-well microtiter plate was precoated with streptavidin (Thermo Scientific Reacti-Bind StreptAvidin Coated High Binding Capacity plate) was used. Biotinylated soluble αvβ5 protein (2 μg/mL) in TBS with 1% BSA was added to the wells, and the plate was incubated for 1 hr at 25° C. The plate was washed with wash buffer (0.05% Tween-20 in PBS), and purified humanized ALULA antibody in TBS containing 1% BSA, 1 mM CaCl2, and 1 mM MgCl2 were added (50 μl/well). The plate was incubated for 1 hr at 25° C., washed, and then incubated for 1 hr with 50 μl/well of […] goat anti-human secondary antibody. Bound antibody was detected using 3,3′,5,5′-tetramethylbenzidine (TMB). Binding was indicated by the absorbency measured at 450 nm.
(§1) Screening of all combinations of heavy chain versions VH0, VH1, VH2, VH3, VH4, or VH5, with light chains VL0, VL1, VL2, or VL3 was carried out using unpurified proteins in conditioned cell media. The binding of each construct to biotin-conjugated human αvβ5 protein was determined using a solid-phase binding assay (ELISA) and by FACS, and the ability of each construct to block ligand binding was determined using a vitronectin cell adhesion assay (Table 1).

The target of test [3] is T1, human αvβ5 expressed on BaF3 cells …. Nature of the test: FACS on αvβ5-BaF3 cells, unpurified antibody. On the procedure:
FACS Binding Assay: Cells were washed one time in PBS, and then resuspended in FACS buffer (1×PBS, 1% BSA, 1 mM CaCl₂, and 1 mM MgCl₂). 1×10⁶ cells were then incubated on ice for 1 hr in FACS buffer containing the test antibody in a total volume of 50 μl. After incubation, the cells were washed two times with ice cold FACS buffer, resuspended in 50 μl of FACS buffer containing 3 μg/ml goat anti-mouse IgG AlexaFluor488 (Jackson ImmunoResearch), and incubated on ice for 30 min. The cells were then washed twice with ice cold FACS buffer and fixed in 1% PFA overnight. Cell aggregates were removed by filtering through 40 μm filter plates (Millipore) and binding of the labeled secondary antibody was monitored by flow cytometry using a FACS Calibur (BD Biosciences).
as §1

Test [4] addresses T2, human soluble αvβ5 protein …. Nature of the test: ELISA, inhibition of soluble αvβ5 binding to coated human plasma vitronectin. On the procedure:
Vitronectin Inhibition ELISA: 96-well microtiter plates were coated with 5 μg/ml purified human plasma vitronectin diluted in PBS (50 μl/well) at 4° C. overnight. After the coating solution was removed, the plates were blocked with 300 μl/well of 1% BSA/TBS at 25° C. for 1 hr. The plate was washed with wash buffer (0.05% Tween-20 in TBS containing 1 mM CaCl₂ and 1 mM MgCl₂), and dilutions of humanized antibodies mixed with 1 nM soluble αvβ5 protein in TBS containing 1% BSA, 1 mM CaCl₂ and 1 mM MgCl₂ were added (50 μl/well) and incubated at 25° C. for 1 hr. The plate was washed 4 times with wash buffer in an automated plate washer and incubated sequentially with 50 μl/well of the anti-beta5 monoclonal antibody 15F11 (at 0.5 ug/mL) in for 1 hr at 25° C. in TBS containing 1% BSA, 1 mM CaCl₂ and 1 mM MgCl₂. After washing the plate 4 times with wash buffer, 100 μl/well of a 1:5000 dilution of a peroxidase-conjugated goat anti-mouse antibody in TBS containing 1% BSA, 1 mM CaCl₂ and 1 mM MgCl₂ were added and incubated for 1 hr at 25° C. Bound protein was detected using the TMB substrate and indicated by the absorbency measured at 450 nm.
In parallel, the humanized ALULA antibodies were tested in two adhesion assays. One measured the ability of each antibody to inhibit the binding of soluble αvβ5 to purified human plasma vitronectin. In the other assay, the murine BaF3 cell line was stably transfected with human αv and β5 subunits, and the adhesion of these cells to vitronectin was determined using a fluorescence endpoint.

The target of test [5] is T1, human αvβ5 expressed on BaF3 cells …. Nature of the test: cell-based or functional assay. This is another data set of the same source.
The target of test [6] is T2, human soluble αvβ5 protein …. In words: competition ELISA against 1 nM murine ALULA on coated soluble human αvβ5. The method, then:
Competition ELISA: A 96-well microtiter plate was coated with 50 μl/well of 5 μg/mL soluble human αvβ5 protein at 4° C. overnight. The plate was washed with wash buffer (0.05% Tween-20 in PBS) four times in an automated plate washer. 300 μl/well of 1% BSA in PBS was added and incubated for 1 hr at 25° C. to block nonspecific binding. The plate was washed as above, and dilutions of humanized antibodies mixed with 1 nM murine ALULA in PBS containing 1% BSA, were added (50 μl/well). The plate was incubated for 1 hr at 25° C., washed, and then incubated for 40 minutes with 100 μl/well of […] goat anti-mouse antibody. Bound antibody was detected using 3,3′,5,5′-tetramethylbenzidine (TMB). Binding was indicated by the absorbency measured at 450 nm.
The binding of each construct to soluble, purified human αvβ5 protein was determined by a competition ELISA with murine ALULA (FIG. 4). […] The remaining constructs behaved similarly, with version H4/L2 showing the lowest IC50 value in this assay.

The target is the same in test [7]. In words: ELISA, Fab blocking of 2 nM soluble αvβ5 binding to immobilized human plasma vitronectin. The method, then: Fab fragments of the four constructs of Example 6 were generated from the corresponding IgG1(N297Q) versions by digestion with papain. The ability of each Fab to block 2 nM soluble αvβ5 binding to immobilized human plasma vitronectin was determined by ELISA.
Background: ELISA stands for enzyme-linked immunosorbent assay.

Residue numbers refer to the chain shown, from its start. Names and notes keep the numbering of the source. Read-outs that look alike come from different tables or passages of the source.

T1 sequence (P06756 31-1048 limits assumed, chain 1 of 2): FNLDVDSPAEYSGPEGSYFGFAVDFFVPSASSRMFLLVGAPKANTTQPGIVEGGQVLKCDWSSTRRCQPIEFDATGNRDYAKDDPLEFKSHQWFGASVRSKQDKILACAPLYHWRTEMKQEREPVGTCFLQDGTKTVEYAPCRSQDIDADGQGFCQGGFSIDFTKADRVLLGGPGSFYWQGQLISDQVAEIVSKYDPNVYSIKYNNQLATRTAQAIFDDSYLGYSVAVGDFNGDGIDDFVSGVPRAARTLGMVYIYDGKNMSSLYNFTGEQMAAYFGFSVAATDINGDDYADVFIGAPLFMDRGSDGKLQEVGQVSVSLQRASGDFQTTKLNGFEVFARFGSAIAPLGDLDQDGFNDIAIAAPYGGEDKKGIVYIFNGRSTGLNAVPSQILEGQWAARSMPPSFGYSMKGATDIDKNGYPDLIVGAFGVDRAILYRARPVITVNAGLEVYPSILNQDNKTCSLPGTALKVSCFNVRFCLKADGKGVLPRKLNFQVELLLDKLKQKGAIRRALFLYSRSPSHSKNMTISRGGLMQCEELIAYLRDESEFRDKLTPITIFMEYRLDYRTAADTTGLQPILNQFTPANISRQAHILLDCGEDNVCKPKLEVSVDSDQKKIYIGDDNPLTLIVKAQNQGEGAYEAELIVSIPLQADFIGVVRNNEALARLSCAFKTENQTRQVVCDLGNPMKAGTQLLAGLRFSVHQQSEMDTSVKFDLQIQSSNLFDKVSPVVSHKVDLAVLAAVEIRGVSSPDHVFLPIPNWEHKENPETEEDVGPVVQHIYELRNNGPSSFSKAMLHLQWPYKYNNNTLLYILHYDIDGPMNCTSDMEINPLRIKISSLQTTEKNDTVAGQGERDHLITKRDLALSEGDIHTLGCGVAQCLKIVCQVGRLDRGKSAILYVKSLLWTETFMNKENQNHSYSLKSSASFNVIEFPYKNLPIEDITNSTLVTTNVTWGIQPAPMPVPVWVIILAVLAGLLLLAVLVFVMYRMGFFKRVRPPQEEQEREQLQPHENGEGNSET
T1 sequence (P18084 24-799 limits assumed, chain 2 of 2): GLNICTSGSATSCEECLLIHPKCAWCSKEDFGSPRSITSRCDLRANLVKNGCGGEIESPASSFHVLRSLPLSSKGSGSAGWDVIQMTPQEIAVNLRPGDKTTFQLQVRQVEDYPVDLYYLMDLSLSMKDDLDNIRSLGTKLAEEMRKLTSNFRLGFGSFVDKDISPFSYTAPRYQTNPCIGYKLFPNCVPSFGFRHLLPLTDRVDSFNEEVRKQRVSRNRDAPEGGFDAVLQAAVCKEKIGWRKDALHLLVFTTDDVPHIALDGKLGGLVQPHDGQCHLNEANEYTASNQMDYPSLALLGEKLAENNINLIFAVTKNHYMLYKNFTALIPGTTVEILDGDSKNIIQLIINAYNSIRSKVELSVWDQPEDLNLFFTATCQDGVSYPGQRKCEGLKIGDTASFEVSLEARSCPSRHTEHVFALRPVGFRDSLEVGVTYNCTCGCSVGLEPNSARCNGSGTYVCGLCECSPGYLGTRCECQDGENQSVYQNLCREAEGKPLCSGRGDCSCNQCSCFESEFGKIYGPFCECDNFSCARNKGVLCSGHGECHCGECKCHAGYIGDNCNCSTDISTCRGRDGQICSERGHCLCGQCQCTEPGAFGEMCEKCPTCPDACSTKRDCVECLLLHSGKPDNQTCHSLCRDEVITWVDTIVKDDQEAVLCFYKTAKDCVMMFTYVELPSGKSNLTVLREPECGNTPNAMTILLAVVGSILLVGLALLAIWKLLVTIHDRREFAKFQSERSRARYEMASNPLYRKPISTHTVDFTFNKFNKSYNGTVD
T2 sequence (P06756 31-992 limits assumed, chain 1 of 2): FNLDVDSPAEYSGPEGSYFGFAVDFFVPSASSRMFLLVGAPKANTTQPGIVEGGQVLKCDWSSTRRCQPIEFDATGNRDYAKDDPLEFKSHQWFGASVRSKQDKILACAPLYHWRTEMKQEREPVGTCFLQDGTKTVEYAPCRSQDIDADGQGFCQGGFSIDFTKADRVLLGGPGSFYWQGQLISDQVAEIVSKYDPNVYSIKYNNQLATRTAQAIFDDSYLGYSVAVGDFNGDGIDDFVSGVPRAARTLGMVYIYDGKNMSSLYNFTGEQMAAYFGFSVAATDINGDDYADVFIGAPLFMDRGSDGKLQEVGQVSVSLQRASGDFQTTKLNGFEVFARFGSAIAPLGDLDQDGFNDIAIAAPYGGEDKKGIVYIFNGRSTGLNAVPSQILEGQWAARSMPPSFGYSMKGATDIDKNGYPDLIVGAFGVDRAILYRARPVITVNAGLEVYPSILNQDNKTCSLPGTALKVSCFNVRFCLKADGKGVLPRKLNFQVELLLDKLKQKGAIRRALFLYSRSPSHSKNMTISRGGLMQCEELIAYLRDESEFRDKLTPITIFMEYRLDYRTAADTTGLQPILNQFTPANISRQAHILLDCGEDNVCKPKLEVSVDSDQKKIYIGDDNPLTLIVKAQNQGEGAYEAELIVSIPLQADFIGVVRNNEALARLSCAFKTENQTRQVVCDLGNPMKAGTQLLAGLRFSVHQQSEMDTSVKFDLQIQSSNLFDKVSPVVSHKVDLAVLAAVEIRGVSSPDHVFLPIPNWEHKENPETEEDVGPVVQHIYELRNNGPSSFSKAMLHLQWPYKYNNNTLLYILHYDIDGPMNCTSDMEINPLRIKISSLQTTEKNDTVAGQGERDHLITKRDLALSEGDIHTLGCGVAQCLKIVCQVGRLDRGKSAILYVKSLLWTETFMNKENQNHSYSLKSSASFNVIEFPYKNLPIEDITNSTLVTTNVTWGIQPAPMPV
T2 sequence (P18084 24-719 limits assumed, chain 2 of 2): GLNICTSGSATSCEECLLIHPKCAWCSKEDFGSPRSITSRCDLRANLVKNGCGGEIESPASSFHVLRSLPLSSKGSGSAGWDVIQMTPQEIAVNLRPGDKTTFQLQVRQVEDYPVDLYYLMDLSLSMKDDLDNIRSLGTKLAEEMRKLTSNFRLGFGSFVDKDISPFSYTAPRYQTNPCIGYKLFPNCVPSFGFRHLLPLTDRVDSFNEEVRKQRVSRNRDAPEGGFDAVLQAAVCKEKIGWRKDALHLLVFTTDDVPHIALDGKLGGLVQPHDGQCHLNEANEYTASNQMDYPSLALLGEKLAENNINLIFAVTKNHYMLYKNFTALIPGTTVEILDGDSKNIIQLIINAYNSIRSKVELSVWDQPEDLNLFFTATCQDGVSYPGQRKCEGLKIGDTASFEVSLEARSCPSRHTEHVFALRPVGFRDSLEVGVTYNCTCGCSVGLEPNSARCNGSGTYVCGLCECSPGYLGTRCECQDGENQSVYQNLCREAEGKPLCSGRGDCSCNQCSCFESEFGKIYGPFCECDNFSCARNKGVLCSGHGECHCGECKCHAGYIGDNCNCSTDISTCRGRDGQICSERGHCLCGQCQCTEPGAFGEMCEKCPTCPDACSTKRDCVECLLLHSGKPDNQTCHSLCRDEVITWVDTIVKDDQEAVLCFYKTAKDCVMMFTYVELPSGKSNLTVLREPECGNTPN

B1: VH2/VL2 Agly-hIgG1(T299A) (antibody, V domains shown)
VH: EVQVVQSGGGLVKPGESLRLSCAASGYTFTSYWMHWVKQAPGKGLEWVGAIYPGNSDTSYNQKFKGKFTISADTSSNTAYLQMNSLKTEDTAVYYCTTTTYGYDWFAYWGQGTLVTVSS
VL: NIQMTQSPSSLSASVGDRVTMSCKSSQSVLYSSNQKNYLAWYQQKPGKSPKLLIYWASTRESGVPDRFTGSGSGTDFTLTISSLQPEDFATYYCHQYLSSLTFGQGTKLEIK
notes: also called H2/L2 (Agly-IgG1)
By EC50 is commonly meant the midpoint of the concentration-response curve. The IC50 is the concentration that inhibits the measured activity by half. As to B1, the “VN adhesion inhibition, αvβ5-BaF3 (IC50, nM)” value (from here on “VN adhesion inhibition”) in test [1] was 292 nM; in test [5], 0.4 nM. Also, the values for the half-maximal effective concentration (EC50) in test [2] and in test [3] were 0.7 nM and 646 nM, respectively. For the same molecule, the results for the IC50 in test [4] and in test [6] were 1.1 nM and 2.8 nM, respectively.

B2: VH4/VL0 Agly-hIgG1(T299A) (antibody, V domains shown)
VH: B1 VH with A23K, S76P
VL: B1 VL with N1D, L11V, M21I, S22T, S49A, D66S, T69S, L109V
notes: also called H4/L0 (Agly-IgG1)
In the case of B2, the results for the “VN adhesion inhibition” value in test [1] and in test [5] were 74.9 nM and 1.1 nM, respectively. Moreover, the half-maximal effective concentration (EC50) in test [2] stood at 0.3 nM; in test [3], 158 nM. Also, the results for the half-maximal inhibitory concentration (IC50) in test [4] and in test [6] were 1.7 nM and 2 nM, respectively.

B3: VH4/VL0 Fab fragment (Fab, V domains shown)
VH: B1 VH with A23K, S76P
VL: B1 VL with N1D, L11V, M21I, S22T, S49A, D66S, T69S, L109V
notes: also called H4/L0 (Fab source); H4L0 hIgG1 Fab
As to B3, in test [7], the “Fold change (IC50 against mouse chimeric ALULA)” value (shortened to “Fold change”) worked out at 1.6 fold and the IC50 was found to be 7.5 nM.

B4: VH5/VL2 Fab fragment (Fab, V domains shown)
VH: B1 VH with V5Q, E16G, A23K, F68A, I70L, D73V, S76P
VL: B1 VL
notes: also called H5/L2 (Fab source); H5L2 hIgG1 Fab
For the molecule B4, in test [7], the “Fold change” value was found to be 1.4 fold and the IC50 turned out to be 6.8 nM.

B5: VH3/VL2 Agly-hIgG1(T299A) (antibody, V domains shown)
VH: B1 VH with Q6E, E16G, A23K, I70L, D73V
VL: B1 VL
notes: also called H3/L2
Regarding B5, the “VN adhesion inhibition” value came out at 124 nM in test [1] and 0.6 nM in test [5]. Further, the 50% effective concentration (EC50) in test [2] is 0.7 nM; in test [3] it was 3310 nM. The IC50 came out at 2.5 nM in test [4] and 3.3 nM in test [6].

B6: VH4/VL2 Agly-hIgG1(T299A) (antibody, V domains shown)
VH: B1 VH with A23K, S76P
VL: B1 VL
notes: also called H4/L2 (Agly-IgG1)
As for B6, the “VN adhesion inhibition” value in test [1] is 71.8 nM; in test [5] it was 0.5 nM. Also, the values for the EC50 in test [2] and in test [3] were 0.4 nM and 156 nM, respectively. Also, the IC50 in test [4] worked out at 0.6 nM; in test [6], 1.6 nM.

B7: VH5/VL0 Agly-hIgG1(T299A) (antibody, V domains shown)
VH: B1 VH with V5Q, E16G, A23K, F68A, I70L, D73V, S76P
VL: B1 VL with N1D, L11V, M21I, S22T, S49A, D66S, T69S, L109V
notes: also called H5/L0
For the molecule B7, the “VN adhesion inhibition” value in test [1] turned out to be 218 nM; in test [5], 1 nM. For the same molecule, the concentration giving a half-maximal response (EC50) is 0.4 nM in test [2] and 244 nM in test [3]. In addition, the results for the IC50 in test [4] and in test [6] were 3.1 nM and 2.8 nM, respectively.

B8: VH2/VL2 Fab fragment (Fab, V domains shown)
VH: B1 VH
VL: B1 VL
notes: also called H2/L2 (Fab source); H2L2 hIgG1 Fab
On to B8, for which, in test [7], the “Fold change” value was found to be 1.5 fold and the concentration for half-maximal inhibition (IC50) came to 7.3 nM.

B9: VH5/VL2 Agly-hIgG1(T299A) (antibody, V domains shown)
VH: B1 VH with V5Q, E16G, A23K, F68A, I70L, D73V, S76P
VL: B1 VL
notes: also called H5/L2 (Agly-IgG1)
In the case of B9, the results for the “VN adhesion inhibition” value in test [1] and in test [5] were 83.2 nM and 0.9 nM, respectively. For the same molecule, the EC50 came out at 0.4 nM in test [2] and 359 nM in test [3]. Moreover, the figures for the half-maximal inhibitory concentration (IC50) in test [4] and in test [6] were 1.3 nM and 2 nM, respectively.

B10: VH5/VL1 Agly-hIgG1(T299A) (antibody, V domains shown)
VH: B1 VH with V5Q, E16G, A23K, F68A, I70L, D73V, S76P
VL: B1 VL with N1D, S22T, S49A, T69S
notes: also called H5/L1
With B10, the entries for the “VN adhesion inhibition” value in test [1] and in test [5] were 163 nM and 0.7 nM, respectively. Besides, the EC50 in test [2] turned out to be 0.3 nM; in test [3], 147 nM. Also, the half-maximal inhibitory concentration (IC50) amounted to 1.3 nM in test [4] and 3 nM in test [6].

B11: Mouse chimeric ALULA Fab fragment (Fab, V domains shown)
VH: EVQVQQSGTVLARPGASVKMSCKASGYTFTSYWMHWVKQRPGQGLEWIGAIYPGNSDTSYNQKFKGKAKLTAVTSPNTAYMELSSLTNEDSAVYYCTTTTYGYDWFAYWGQGTLVTVSA
VL: NIMMTQSPSSLTVSAGEKVTMSCKSSQSVLYSSNQKNYLAWYQQKPGQSPKLLIYWASTRESGVPDRFTGSGSGTDFTLTISSVQAEDLAVYYCHQYLSSLTFGAGTKLELK
notes: also called Mouse chimeric ALULA (Fab source)
The molecule B11 yielded an IC50 in test [7] of 4.8 nM.
